Source: patent US20100169988A1 (published 2010)
Values belong to the binder of their own block, whether it stands above or below them.

Experiments:
APP-TAP-AICD [1] = molecular target: T1, APP-TAP-AICD (human, UniProt P05067 18-695); assay: streptavidin purification of APP-TAP-AICD from brain homogenate; LTQ-FT semiquantitative method, transgenic mouse 75 vs control mouse 72
APP-TAP-AICD [2] = molecular target: T1, APP-TAP-AICD; assay: streptavidin purification of APP-TAP-AICD from brain homogenate; iTRAQ 116/114, transgenic mouse 75 vs control mouse 72; MALDI-TOF/TOF;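 note: relative protein abundance in the transgenic versus control pull-down, limited to proteins with high quality scores and above-average enrichment, without full normalization across the whole measurement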
Text: Shown are all proteins that have high quality scores and are enriched above average in the m75 sample. Purified bait protein is given underlined. Other already known interaction partners of AICD or putatively biologically relevant proteins are given in bold. As full normalization over the entire measurement was not possible through the GPS explorer software suite, this conservative estimate had to be taken for determining the enriched vs. the non-enriched proteins. […] Ranking is in order of abundance ratio.

B2: Fructose-bisphosphate aldolase A (Muscle-type aldolase) (Aldolase 1) (enzyme, mouse, UniProt P05064 2-364, looked up)
chain: PHPYPALTPEQKKELSDIAHRIVAPGKGILAADESTGSIAKRLQSIGTENTEENRRFYRQLLLTADDRVNPCIGGVILFHETLYQKADDGRPFPQVIKSKGGVVGIKVDKGVVPLAGTNGETTTQGLDGLSERCAQYKKDGADFAKWRCVLKIGEHTPSALAIMENANVLARYASICQQNGIVPIVEPEILPDGDHDLKRCQYVTEKVLAAVYKALSDHHVYLEGTLLKPNMVTPGHACTQKFSNEEIAMATVTALRRTVPPAVTGVTFLSGGQSEEEASINLNAINKCPLLKPWALTFSYGRALQASALKAWGGKKENLKAAQEEYIKRALANSLACQGKYTPSGQSGAAASESLFISNHAY
- iTRAQ ratio (APP-TAP-AICD [2]): 4.61
- probability that this protein is enriched (APP-TAP-AICD [1]): 1

B3: 14-3-3 protein beta/alpha (Protein kinase C inhibitor protein 1) (KCIP-1) (other, mouse, UniProt Q9CQV8 1-246, looked up)
chain: MTMDKSELVQKAKLAEQAERYDDMAAAMKAVTEQGHELSNEERNLLSVAYKNVVGARRSSWRVISSIEQKTERNEKKQQMGKEYREKIEAELQDICNDVLELLDKYLILNATQAESKVFYLKMKGDYFRYLSEVASGENKQTTVSNSQQAYQEAFEISKKEMQPTHPIRLGLALNFSVFYYEILNSPEKACSLAKTAFDEAIAELDTLNEESYKDSTLIMQLLRDNLTLWTSENQGDEGDAGEGEN
notes: also called 14-3-3 β
- probability that this protein is enriched (APP-TAP-AICD [1]): 1

B5: phosphoglycerate mutase 1 (enzyme, mouse, UniProt Q9DBJ1 1-254, looked up)
chain: MAAYKLVLIRHGESAWNLENRFSGWYDADLSPAGHEEAKRGGQALRDAGYEFDICFTSVQKRAIRTLWTVLDAIDQMWLPVVRTWRLNERHYGGLTGLNKAETAAKHGEAQVKIWRRSYDVPPPPMEPDHPFYSNISKDRRYADLTEDQLPSCESLKDTIARALPFWNEEIVPQIKEGKRVLIAAHGNSLRGIVKHLEGLSEEAIMELNLPTGIPIVYELDKNLKPIKPMQFLGDEETVRKAMEAVAAQGKVKK
notes: also called PGAM1_MOUSE
- probability that this protein is enriched (APP-TAP-AICD [1]): 0.86

B9: Neuronal membrane glycoprotein M6-b (M6b) (other, mouse, UniProt P35803 1-328, looked up)
chain: MKPAMETAAEENTEQSQERKVNSRAEMEIGRYHWMYPGSKNHQYRPVPNLGDRAGPLSSPGCFECCIKCLGGVPYASLVATILCFSGVALFCGCGHVALAGTVAILEQHFSTNTSDHALLSEVIQLMQYVIYGIASFFFLYGIILLAEGFYTTSAVKELHGEFKTTACGRCISGMFVFLTYVLGVAWLGVFGFSAVPVFMFYNIWSTCEVIKSPQSNGTSGVEQICVDVRQYGIIPWNAFPGKICGSALENICNTNEFYMSYHLFIVACAGAGATVIALIHFLMILSSNWAYLKDASKMQAYQDIKAKEEQELQDIQSRSKEQLNSYT
notes: also called Proteolipid protein PLP/dm-20
- probability that this protein is enriched (APP-TAP-AICD [1]): 0.87

B10: Sodium/potassium-transporting ATPase alpha-2 chain precursor (Sodium pump 2) (Na+/K+ ATPase 2) (Alpha(+)) (enzyme)
chain: not shown
notes: also called AT1A2_MOUSE
- probability that this protein is enriched (APP-TAP-AICD [1]): 0.88

B11: Malate dehydrogenase; mitochondrial precursor (enzyme, mouse, UniProt P08249 25-338, looked up)
chain: AKVAVLGASGGIGQPLSLLLKNSPLVSRLTLYDIAHTPGVAADLSHIETRANVKGYLGPEQLPDCLKGCDVVVIPAGVPRKPGMTRDDLFNTNATIVATLTAACAQHCPEAMVCIIANPVNSTIPITAEVFKKHGVYNPNKIFGVTTLDIVRANTFVAELKGLDPARVNVPVIGGHAGKTIIPLISQCTPKVDFPQDQLATLTGRIQEAGTEVVKAKAGAGSATLSMAYAGARFVFSLVDAMNGKEGVVECSFVQSKETECTYFSTPLLLGKKGLEKNLGIGKITPFEEKMIAEAIPELKASIKKGEDFVKNMK
- iTRAQ ratio (APP-TAP-AICD [2]): 4.71
- probability that this protein is enriched (APP-TAP-AICD [1]): 0.86

The next lines start with the values.

- probability that this protein is enriched (APP-TAP-AICD [1]): 0.88
B1: ATP synthase e chain, mitochondrial (enzyme, mouse, UniProt Q06185 2-71, looked up)
chain: VPPVQVSPLIKFGRYSALIIGMAYGAKRYSYLKPRAEEERRIAAEEKKRLDELKRIERELAEAQDDSILK
notes: also called epsilon chain

- probability that this protein is enriched (APP-TAP-AICD [1]): 0.86
B4: Plasma membrane calcium-transporting ATPase 2 (PMCA2) (enzyme, mouse, UniProt Q9R0K7 1-1198, looked up)
chain: MGDMTNSDFYSKNQRNESSHGGEFGCTMEELRSLMELRGTEAVVKIKETYGDTEAICRRLKTSPVEGLPGTAPDLEKRKQIFGQNFIPPKKPKTFLQLVWEALQDVTLIILEIAAIISLGLSFYHPPGESNEGCATAQGGAEDEGEAEAGWIEGAAILLSVICVVLVTAFNDWSKEKQFRGLQSRIEQEQKFTVVRAGQVVQIPVAEIVVGDIAQIKYGDLLPADGLFIQGNDLKIDESSLTGESDQVRKSVDKDPMLLSGTHVMEGSGRMVVTAVGVNSQTGIIFTLLGAGGEEEEKKDKKAKQQDGAAAMEMQPLKSAEGGDADDKKKANMHKKEKSVLQGKLTKLAVQIGKAGLVMSAITVIILVLYFTVDTFVVNKKPWLTECTPVYVQYFVKFFIIGVTVLVVAVPEGLPLAVTISLAYSVKKMMKDNNLVRHLDACETMGNATAICSDKTGTLTTNRMTVVQAYVGDVHYKEIPDPSSINAKTLELLVNAIAINSAYTTKILPPEKEGALPRQVGNKTECGLLGFVLDLRQDYEPVRSQMPEEKLYKVYTFNSVRKSMSTVIKMPDESFRMYSKGASEIVLKKCCKILSGAGEARVFRPRDRDEMVKKVIEPMACDGLRTICVAYRDFPSSPEPDWDNENDILNELTCICVVGIEDPVRPEVPEAIRKCQRAGITVRMVTGDNINTARAIAIKCGIIHPGEDFLCLEGKEFNRRIRNEKGEIEQERIDKIWPKLRVLARSSPTDKHTLVKGIIDSTHTEQRQVVAVTGDGTNDGPALKKADVGFAMGIAGTDVAKEASDIILTDDNFSSIVKAVMWGRNVYDSISKFLQFQLTVNVVAVIVAFTGACITQDSPLKAVQMLWVNLIMDTFASLALATEPPTETLLLRKPYGRNKPLISRTMMKNILGHAVYQLTLIFTLLFVGEKMFQIDSGRNAPLHSPPSEHYTIIFNTFVMMQLFNEINARKIHGERNVFDGIFRNPIFCTIVLGTFAIQIVIVQFGGKPFSCSPLQLDQWMWCIFIGLGELVWGQVIATIPTSRLKFLKEAGRLTQKEEIPEEELNEDVEEIDHAERELRRGQILWFRGLNRIQTQIRVVKAFRSSLYEGLEKPESRTSIHNFMAHPEFRIEDSQPHIPLIDDTDLEEDAALKQNSSPPSSLNKNNSAIDSGINLTTDTSKSATSSSPGSPIHSLETSL
notes: also called AT2B2_MOUSE

- probability that this protein is enriched (APP-TAP-AICD [1]): 0.85
B6: Clathrin coat assembly protein AP180 (Clathrin coat-associated protein AP180) (91 kDa synaptosomal-associated protein) (other, mouse, UniProt Q61548 1-901, looked up)
chain: MSGQTLTDRIAAAQYSVTGSAVARAVCKATTHEVMGPKKKHLDYLIQATNETNVNIPQMADTLFERATNSSWVVVFKALVTTHHLMVHGNERFIQYLASRNTLFNLSNFLDKSGSHGYDMSTFIRRYSRYLNEKAFSYRQMAFDFARVKKGADGVMRTMVPEKLLKSMPILQGQIDALLEFDVHPNELTNGVINAAFMLLFKDLIKLFACYNDGVINLLEKFFEMKKGQCKDALEIYKRFLTRMTRVSEFLKVAEQVGIDKGDIPDLTQAPSSLMETLEQHLNTLEGKKPGNNEGSGAPSPLSKSSPATTVTSPNSTPAKTIDTSPPVDIFATASAAAPVSSAKPSSDLLDLQPDFSGAAAGAAAPVVPPSGGATAWGDLLGEDSLAALSSVPCEAPISDPFAPEPSPPTTTTEPASASASTTTAVTAVTTEVDLFGDAFAASPGEAPAASEGATAPATPAPVAAALDACSGNDPFAPSEGSAEAAPELDLFAMKPPETSAPVVTPTASTAPPVPATAPSPAPTAVAATAATTTAAAAATTTATTSAAAATTAAAPPALDIFGDLFDSAPEVAAAPKPDAAPSIDLFGTDAFSSPPRGASPVPESSLTADLLSVDAFAAPSPASTASPAKAESSGVIDLFGDAFGSGASETQPAPQAVSSSSASADLLAGFGGSFMAPSTTPVTPAQNNLLQPSFEAAFGTTPSTSSSSSFDPSVFDGLGDLLMPTMAPSGQPAPVSMVPPSPAMAASKGLGSDLDSSLASLVGNLGISGTTSKKGDLQWNAGEKKLTGGANWQPKVTPATWSAGVPPQGTVPPTSSVPPGAGAPSVGQPGAGFGMPPSGTGMTMMSQQPVMFAQPMMRPPFGAAAVPGTQLSPSPTPATQSPKKPPAKDPLADLNIKDFL
notes: also called AP180_MOUSE; Clathrin coat assembly protein Aβ180

- iTRAQ ratio (APP-TAP-AICD [2]): 4.87
- probability that this protein is enriched (APP-TAP-AICD [1]): 1
B7: Phosphatidylethanolamine-binding protein (PEBP) (other, mouse, UniProt P70296 2-187, looked up)
chain: AADISQWAGPLCLQEVDEPPQHALRVDYAGVTVDELGKVLTPTQVMNRPSSISWDGLDPGKLYTLVLTDPDAPSRKDPKFREWHHFLVVNMKGNDISSGTVLSDYVGSGPPSGTGLHRYVWLVYEQEQPLSCDEPILSNKSGDNRGKFKVETFRKKYNLGAPVAGTCYQAEWDDYVPKLYEQLSGK
notes: also called PEBP1_MOUSE

- probability that this protein is enriched (APP-TAP-AICD [1]): 1
B8: Myosin light chain kinase 2, skeletal/cardiac muscle (MLCK2) (Fragment) (enzyme, mouse, UniProt Q8VCR8 1-613, looked up)
chain: MTTENGAVELGSQSLSTEQTPKAAAGDGPSASEKEPSAPATEKDLSPPNAKKDPGAPDPKNNPDPPSLKKDPAKAPGPEKKGDPVPASASSQGPSGEGDGGGGPAEGSEGPPAALPLPTATAEASIQKLDPTQAPSGNQGSGEAKAGKKAAECREAGRRGSPAFLHSPSCPAIISCSEKTLAVKPLSETTDLVFTGVSVTPDPQDPGPVKAGGTNALAEKKKEEAEKASGQAGQAKVQGDTPQRIGFQAVPSERVEVGQALCLTAREEDCFQILDDCPPPPAPFPHRIVELRTGNVNSEFSMNSKEALGGGKFGAVCTCTERATGLKLAAKVIKKQTPKDKEMVLLEIEVMNQLNHRNLIQLYAAIETSHEIILFMEYIEGGELFERIVDEDYHLTEVDTMVFVRQICDGILFMHKMRVLHLDLKPENILCVNTTGHLVKIIDFGLARRYNPNEKLKVNFGTPEFLSPEVVNYDQISDKTDMWSLGVITYMLLSGLSPFLGDDDTETLNNVLSANWYFDEETFEAVSDEAKDFVSNLLTKDQSARMSAEQCLAHPWLNNLAEKAKRCNRRLKSQILLKKYLMKRRWKKNFIAVSAANRFKKISSSGALMALGV
notes: also called MYLK2_MOUSE

- probability that this protein is enriched (APP-TAP-AICD [1]): 0.87
B12: 2',3'-cyclic-nucleotide 3'-phosphodiesterase (CNPase) (enzyme, mouse, UniProt P16330 1-417, looked up)
chain: MNTSFTRKSHTFLPKLFFRKMSSSGAKEKPELQFPFLQDEDTVATLHECKTLFILRGLPGSGKSTLARLILEKYHDGTKMVSADAYKIIPGSRADFSEAYKRLDEDLAGYCRRDIRVLVLDDTNHERERLDQLFEMADQYQYQVVLVEPKTAWRLDCAQLKEKNQWQLSADDLKKLKPGLEKDFLPLYFGWFLTKKSSETLRKAGQVFLEELGNHKAFKKELRHFISGDEPKEKLELVSYFGKRPPGVLHCTTKFCDYGKAAGAEEYAQQEVVKRSYGKAFKLSISALFVTPKTAGAQVVLTDQELQLWPSDLDKPSASEGLPPGSRAHVTLGCAADVQPVQTGLDLLDILQQVKGGSQGEAVGELPRGKLYSLGKGRWMLSLTKKMEVKAIFTGYYGKGKPVPIHGSRKGGAMQIC
notes: also called CN37_MOUSE
